B1: Multi-step trastuzumab HCDR3 variant ARSTGSGFYSYDY (SEQ ID NO: 547) (Fab, V domains shown)
VH: EVQLVESGGGLVQPGGSLRLSCAASGFNIKDTYIHWVRQAPGKGLEWVARIYPTNGYTRYADSVKGRFTISADTSKNTAYLQMNSLRAEDTAVYYCARSTGSGFYSYDYWGQGTLVTVSS
VL: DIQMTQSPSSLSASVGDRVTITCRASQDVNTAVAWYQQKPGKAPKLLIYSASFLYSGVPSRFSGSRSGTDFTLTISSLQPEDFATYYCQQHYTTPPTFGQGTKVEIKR
B2: Multi-step trastuzumab HCDR3 variant ARYGGSSNYYYDY (SEQ ID NO: 518) (Fab, V domains shown)
VH: B1 VH with S99Y, T100G, G103S, F104N, S106Y
VL: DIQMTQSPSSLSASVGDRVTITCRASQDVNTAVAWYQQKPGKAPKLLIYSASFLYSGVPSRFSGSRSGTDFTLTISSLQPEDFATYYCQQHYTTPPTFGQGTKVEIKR
B3: Multi-step trastuzumab HCDR3 variant ARSGGSSYYYYDY (SEQ ID NO: 508) (Fab, V domains shown)
VH: B1 VH with T100G, G103S, F104Y, S106Y
VL: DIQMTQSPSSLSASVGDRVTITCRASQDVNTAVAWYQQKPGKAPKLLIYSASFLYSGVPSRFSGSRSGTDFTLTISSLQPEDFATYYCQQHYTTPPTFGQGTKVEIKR
B4: Multi-step trastuzumab HCDR3 variant ARYSYYGGGYFDY (SEQ ID NO: 515) (Fab, V domains shown)
VH: B1 VH with S99Y, T100S, G101Y, S102Y, F104G, Y105G, S106Y, Y107F
VL: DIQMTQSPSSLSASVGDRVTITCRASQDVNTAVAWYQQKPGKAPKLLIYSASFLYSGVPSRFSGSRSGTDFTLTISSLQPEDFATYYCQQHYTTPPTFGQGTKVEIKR
B5: Multi-step trastuzumab HCDR3 variant ARYSYYGGGAFDY (SEQ ID NO: 543) (Fab, V domains shown)
VH: B1 VH with S99Y, T100S, G101Y, S102Y, F104G, Y105G, S106A, Y107F
VL: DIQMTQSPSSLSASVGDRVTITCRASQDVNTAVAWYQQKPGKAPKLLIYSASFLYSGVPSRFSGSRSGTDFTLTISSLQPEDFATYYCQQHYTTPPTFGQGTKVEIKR
B6: Multi-step trastuzumab HCDR3 variant ARSGGSGYYSYNY (SEQ ID NO: 523) (Fab, V domains shown)
VH: B1 VH with T100G, F104Y, D108N
VL: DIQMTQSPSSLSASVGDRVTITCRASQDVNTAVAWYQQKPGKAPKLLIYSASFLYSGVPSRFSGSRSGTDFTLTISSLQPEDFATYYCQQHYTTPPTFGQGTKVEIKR
B7: Multi-step trastuzumab HCDR3 variant ARYGGDYYYYYDY (SEQ ID NO: 527) (Fab, V domains shown)
VH: B1 VH with S99Y, T100G, S102D, G103Y, F104Y, S106Y
VL: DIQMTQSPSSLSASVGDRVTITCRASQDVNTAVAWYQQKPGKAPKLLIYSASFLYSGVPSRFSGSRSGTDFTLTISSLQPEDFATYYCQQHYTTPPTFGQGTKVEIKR
B8: De novo trastuzumab HCDR2|3 variant IYPSNGYT / ARYGGSYAYYFYY (Fab, V domains shown)
VH: B1 VH with T54S, S99Y, T100G, G103Y, F104A, S106Y, Y107F, D108Y
VL: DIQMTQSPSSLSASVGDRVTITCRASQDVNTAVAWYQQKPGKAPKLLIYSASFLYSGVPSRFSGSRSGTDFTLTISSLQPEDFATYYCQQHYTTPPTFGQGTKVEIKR
notes: also called AI Design 8
B9: Multi-step trastuzumab HCDR3 variant ASSGGSSSYSYYY (SEQ ID NO: 513) (Fab, V domains shown)
VH: B1 VH with R98S, T100G, G103S, F104S, D108Y
VL: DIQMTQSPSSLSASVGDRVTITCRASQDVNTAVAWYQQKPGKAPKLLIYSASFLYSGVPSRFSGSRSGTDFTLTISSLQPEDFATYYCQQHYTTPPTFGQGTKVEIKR
B10: Multi-step trastuzumab HCDR3 variant ARDGGGGVYAFTY (SEQ ID NO: 525) (Fab, V domains shown)
VH: B1 VH with S99D, T100G, S102G, F104V, S106A, Y107F, D108T
VL: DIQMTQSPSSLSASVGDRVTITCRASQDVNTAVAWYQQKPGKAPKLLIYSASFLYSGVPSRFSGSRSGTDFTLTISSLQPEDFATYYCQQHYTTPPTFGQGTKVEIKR
B11: De novo trastuzumab HCDR2|3 variant IYPSSGYT / ASSGGRYYYYYDY (Fab, V domains shown)
VH: B1 VH with T54S, N55S, R98S, T100G, S102R, G103Y, F104Y, S106Y
VL: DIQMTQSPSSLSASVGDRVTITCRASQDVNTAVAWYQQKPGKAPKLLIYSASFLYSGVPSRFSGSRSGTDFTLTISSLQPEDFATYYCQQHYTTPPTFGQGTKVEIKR
B12: Multi-step trastuzumab HCDR3 variant ARSGGYYHYGFVY (SEQ ID NO: 544) (Fab, V domains shown)
VH: B1 VH with T100G, S102Y, G103Y, F104H, S106G, Y107F, D108V
VL: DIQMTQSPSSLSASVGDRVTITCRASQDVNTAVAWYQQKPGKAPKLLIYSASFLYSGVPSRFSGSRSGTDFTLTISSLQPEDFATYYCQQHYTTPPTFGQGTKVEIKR
B13: Multi-step trastuzumab HCDR3 variant ARYSSSGGSAFDY (SEQ ID NO: 542) (Fab, V domains shown)
VH: B1 VH with S99Y, T100S, G101S, F104G, Y105S, S106A, Y107F
VL: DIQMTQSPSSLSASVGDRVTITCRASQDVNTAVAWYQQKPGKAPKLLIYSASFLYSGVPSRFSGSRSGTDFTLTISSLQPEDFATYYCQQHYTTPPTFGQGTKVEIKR
B14: Multi-step trastuzumab HCDR3 variant ARYGGGYYYYYDY (SEQ ID NO: 531) (Fab, V domains shown)
VH: B1 VH with S99Y, T100G, S102G, G103Y, F104Y, S106Y
VL: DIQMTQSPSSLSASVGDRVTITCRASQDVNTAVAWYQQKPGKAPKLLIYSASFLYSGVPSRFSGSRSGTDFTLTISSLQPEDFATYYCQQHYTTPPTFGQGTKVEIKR
B15: Multi-step trastuzumab HCDR3 variant ARSGGSSFYGMDY (SEQ ID NO: 519) (Fab, V domains shown)
VH: B1 VH with T100G, G103S, S106G, Y107M
VL: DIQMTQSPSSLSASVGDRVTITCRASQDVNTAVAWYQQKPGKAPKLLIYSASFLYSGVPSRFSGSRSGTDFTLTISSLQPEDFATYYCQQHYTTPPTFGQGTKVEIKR
B16: Multi-step trastuzumab HCDR3 variant ARSSGSSYYGFDY (SEQ ID NO: 526) (Fab, V domains shown)
VH: B1 VH with T100S, G103S, F104Y, S106G, Y107F
VL: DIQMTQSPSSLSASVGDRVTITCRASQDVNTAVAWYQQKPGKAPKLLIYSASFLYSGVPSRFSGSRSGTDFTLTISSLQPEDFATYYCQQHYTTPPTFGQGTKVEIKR
B17: De novo trastuzumab HCDR2|3 variant IYSSDGYT / ARSGGSSYYYYDY (Fab, V domains shown)
VH: B1 VH with P53S, T54S, N55D, T100G, G103S, F104Y, S106Y
VL: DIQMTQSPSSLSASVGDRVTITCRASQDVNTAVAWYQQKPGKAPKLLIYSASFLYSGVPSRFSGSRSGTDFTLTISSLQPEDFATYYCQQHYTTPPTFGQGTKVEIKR
B18: Multi-step trastuzumab HCDR3 variant ARSGGGSYYYYDY (SEQ ID NO: 546) (Fab, V domains shown)
VH: B1 VH with T100G, S102G, G103S, F104Y, S106Y
VL: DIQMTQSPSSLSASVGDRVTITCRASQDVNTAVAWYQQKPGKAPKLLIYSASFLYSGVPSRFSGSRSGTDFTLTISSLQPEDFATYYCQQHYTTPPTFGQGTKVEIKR
B19: Multi-step trastuzumab HCDR3 variant ARVGGRGYYAYDY (SEQ ID NO: 552) (Fab, V domains shown)
VH: B1 VH with S99V, T100G, S102R, F104Y, S106A
VL: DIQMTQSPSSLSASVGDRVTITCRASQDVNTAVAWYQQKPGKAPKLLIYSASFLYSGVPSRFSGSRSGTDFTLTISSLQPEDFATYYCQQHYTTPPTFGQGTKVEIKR
B20: Multi-step trastuzumab HCDR3 variant ARDGGGGFYAYDY (SEQ ID NO: 534) (Fab, V domains shown)
VH: B1 VH with S99D, T100G, S102G, S106A
VL: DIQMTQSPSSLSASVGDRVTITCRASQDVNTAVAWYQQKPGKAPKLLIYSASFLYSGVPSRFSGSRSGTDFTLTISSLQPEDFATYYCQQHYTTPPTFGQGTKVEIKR
B21: Multi-step trastuzumab HCDR3 variant ARTGGSSYYAYDY (SEQ ID NO: 520) (Fab, V domains shown)
VH: B1 VH with S99T, T100G, G103S, F104Y, S106A
VL: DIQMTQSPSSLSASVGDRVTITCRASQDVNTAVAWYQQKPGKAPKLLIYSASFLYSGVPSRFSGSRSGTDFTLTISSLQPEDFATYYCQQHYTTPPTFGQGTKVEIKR
B22: Multi-step trastuzumab HCDR3 variant ARYGGRGYYSFDY (SEQ ID NO: 533) (Fab, V domains shown)
VH: B1 VH with S99Y, T100G, S102R, F104Y, Y107F
VL: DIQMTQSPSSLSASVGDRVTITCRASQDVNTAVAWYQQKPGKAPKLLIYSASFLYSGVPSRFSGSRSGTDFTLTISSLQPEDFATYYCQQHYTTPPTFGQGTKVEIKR
B23: Multi-step trastuzumab HCDR3 variant SRYGYSGYGAFDY (SEQ ID NO: 521) (Fab, V domains shown)
VH: B1 VH with A97S, S99Y, T100G, G101Y, F104Y, Y105G, S106A, Y107F
VL: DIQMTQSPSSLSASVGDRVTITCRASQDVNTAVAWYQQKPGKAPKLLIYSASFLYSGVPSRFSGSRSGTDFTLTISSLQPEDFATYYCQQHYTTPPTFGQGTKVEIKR
B24: Multi-step trastuzumab HCDR3 variant ARDGGRSYYSFYY (SEQ ID NO: 538) (Fab, V domains shown)
VH: B1 VH with S99D, T100G, S102R, G103S, F104Y, Y107F, D108Y
VL: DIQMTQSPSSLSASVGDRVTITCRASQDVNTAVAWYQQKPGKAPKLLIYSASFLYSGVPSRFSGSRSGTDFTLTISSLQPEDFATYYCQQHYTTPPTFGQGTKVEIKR

Residue numbers refer to the chain shown, from its start.

For the experiment, the target named is human epidermal growth factor receptor 2 (HER2) extracellular domain (human, UniProt P04626 23-629). Nature of the experiment: SPR, Fab format.
One may read the Kd as a measure of binding affinity in units of concentration. As for B1, binding was put at a Kd of 330 nM and the “log(KD (M))” value was -6.48 log M.
Regarding B2, the Kd came out at 441 nM and the “log(KD (M))” value was -6.36 log M.
B3: the Kd came out at 1070 nM and the “log(KD (M))” value was -5.97 log M.
Taken in the same sequence, the figures for B4 were 478 nM and -6.32 log M.
Regarding B5, the Kd amounted to 191 nM and the “log(KD (M))” value was -6.72 log M.
B6: the affinity, expressed as Kd, was 603 nM and the “log(KD (M))” value was -6.22 log M.
Regarding B7, the affinity, expressed as Kd, was 57 nM and the “log(KD (M))” value was -7.24 log M.
Take B8: the affinity, expressed as Kd, was 18.6 nM and the “log(KD (M))” value was -7.73 log M.
B9: the Kd came to 1720 nM and the “log(KD (M))” value was -5.76 log M.
For the molecule B10, the Kd was determined as 364 nM and the “log(KD (M))” value is -6.44 log M.
For B11, in that order: 591 nM and -6.23 log M.
Take B12: the Kd amounted to 228 nM and the “log(KD (M))” value was -6.64 log M.
Take B13: the Kd is 1990 nM and the “log(KD (M))” value is -5.7 log M.
B14: the Kd was found to be 57.6 nM and the “log(KD (M))” value is -7.24 log M.
Turning to B15, binding was characterised by a dissociation constant (Kd) of 680 nM and the “log(KD (M))” value was -6.17 log M.
B16: the Kd was determined as 668 nM and the “log(KD (M))” value was -6.18 log M.
As for B17, binding was characterised by a dissociation constant (Kd) of 810 nM and the “log(KD (M))” value was -6.09 log M.
As to B18, binding was put at a Kd of 308 nM and the “log(KD (M))” value was -6.51 log M.
Consider B19, for which the dissociation constant (Kd) was determined as 2290 nM and the “log(KD (M))” value is -5.64 log M.
In the case of B20, the Kd worked out at 124 nM and the “log(KD (M))” value is -6.91 log M.
For B21, in that order: 901 nM and -6.05 log M.
Taken in the same sequence, the figures for B22 were 26.2 nM and -7.58 log M.
With B23, the Kd amounted to 1050 nM and the “log(KD (M))” value was -5.98 log M.
Consider B24, for which the affinity, expressed as Kd, was 104 nM and the “log(KD (M))” value was -6.98 log M.
